The values below come from US20230242592A1, “IDENTIFICATION OF […] PEPTIDES AND USES THEREOF” (priority 2020, published 2023).

Data set [1] deals with SARS-CoV-2 spike protein pseudotyped lentivirus. The data set can be described thus: SARS-CoV-2 spike pseudotyped lentivirus infection of ACE2-HEK293 cells (luciferase). Type of data set: cell-based. As to conditions: 0.33 uM.
Data set [2] concerns the target SARS-CoV-2 spike RBD (Severe acute respiratory syndrome coronavirus 2, UniProt P0DTC2).
Data set [3] has as its system ACE2-HEK293 cells. The data set can be described thus: Trypan blue toxicity in ACE2-HEK293 cells in the presence of virus. As to conditions: different concentrations; viability ca. 50%.
In data set [4] the target is interaction between RBD and the neutralizing antibody (Severe acute respiratory syndrome coronavirus 2, UniProt P0DTC2). As to conditions: read-out: IC50 of inhibiting interaction between RBD and the neutralizing antibody.

The term IC50 denotes the point on the concentration scale where inhibition reaches its midpoint.

In the case of ACE2, the “inhibition of pseudotyped virus infection” value in data set [1] was “virtually complete inhibition”. Besides, the “RMax, binding to RBD” value in data set [2] turned out to be 0.5785 ± 0.01557. Further, the Kd in data set [2] (read-out: dissociation constant / binding affinity with RBD) was approximately 3 nM. The “change in cell viability in the presence of virus” value in data set [3] was “did not result in statistically significant changes in cell viability”. For the same substance, the IC50 in data set [4] is 30 to 35 nM.
